From patent US20220306762A1

How the values were obtained:
[1] = molecular target: His-tagged cynomolgus monkey CD38 (ACRO Biosystems, CD8-05223 [sic]) (cynomolgus monkey) (UniProt Q5VAN0); assay: ELISA, 1 ug/ml scFv-Fc, coated His-tagged CD38
[2] = molecular target: His-tagged human CD38 (ACRO Biosystems CD8-H5224) (human) (UniProt P28907); assay: ELISA, 1 ug/ml scFv-Fc, coated His-tagged CD38
[3] = molecular target: His-tagged mouse CD38 (ACRO Biosystems CD8-M5223) (mouse) (UniProt P56528); assay: ELISA, 1 ug/ml scFv-Fc, coated His-tagged CD38
[4] = molecular target: Human CD38 on transiently transfected Expi293 cells (Origene SC321273) (human) (UniProt P28907); assay: flow cytometry, 10 ug/ml scFv-Fc, transfected Expi293 cells
[5] = molecular target: Murine CD38 on transiently transfected Expi293 cells (Origene MC208001) (murine) (UniProt P56528); assay: as above

ELISA signal [1] | ELISA signal [2] | ELISA signal [3] | FACS percent gated [4] | FACS percent gated [5] | Binder
2.35 | 2.42 | 0.048 | 74.9% | – | 40769p2.1.C1 scFv-Fc (scFv, part only; not given: Linker, domain order, Fc, V domains shown, not shown: another chain or arm of the molecule; a dimerising Fc or GST; small tags and cut ends) VH: EVQLLESGGGLVQPGGSLRLSCAASGFSFSDYWMNWVRQAPGKGLEWVSTISSGGNMIYYADSVKGRFTISRDNSKNTLYLRMNSLRAEDTAVYYCAKDNWNDYYGMDVWGQGTTVTVSS VL: QSVLTQPPSASGTPGQRVTISCSGSSSNIRDNYVYWYQQVPGTAPKLLIYKDDQRPSGVPDRFSGSKSGSSASLAISGLQSEDEADYYCATWDGSLNARVFGGGTKLTVL
2.04 | 2.04 | 1.53 | 75.4% | 23.7% | 40769p2.1.E1 scFv-Fc (scFv, part only; not given: Linker, domain order, Fc, V domains shown, not shown: another chain or arm of the molecule; a dimerising Fc or GST; small tags and cut ends) VH: EVQLLESGGGLIQPGGSLRLSCTASGFDFSSYGMHWVRQAPGKGLEWVAIISDSGGTTYYGDSVKGRFTISRDNSKSTLYLQMNSLRAEDTALYYCASYIMDVWGQGTTVTVSS VL: QSVLTQPPSASGTPEQRVTISCSGSNSNVGDNAVYWYQQLPGTAPKLLFYGTNRRPSGVPDRFSGSKSGTSASLAISGLQSEDEADYYCAAWDDSLNAWVFGGGTKLTVL
2.1 | 1.96 | 0.045 | 76.3% | 3.13% | 40769p2.1.E5 scFv-Fc (scFv, part only; not given: Linker, domain order, Fc, V domains shown, not shown: another chain or arm of the molecule; a dimerising Fc or GST; small tags and cut ends) VH: EVQLLESGGGLVQPGGSLRLSCTASAHIFKYNWMSWVRQAPGKGLEWVSSINSDGTITYYTDSVKGRFTISRDNSKNTLYLQMNSLRAEDTAVYYCAKDNWNDYAIDVWGQGTTVTVSS VL: QSVLTQPPSASGTPGQRVTISCSGSRSDIRNNYVSWYQQLPGTAPKLLIYSNGQRPSGVPDRFSGSKSGTSASLAISGLQSEDEADYYCAIWDDSLNAWVFGGGTKLTVL
2.16 | 1.79 | 0.046 | 75.7% | 1.99% | 40769p2.1.E8 scFv-Fc (scFv, part only; not given: Linker, domain order, Fc, V domains shown, not shown: another chain or arm of the molecule; a dimerising Fc or GST; small tags and cut ends) VH: EVQLLESGGGLVQPGGSLRLSCTGFGFTFTDARMSWVRQAPGKGLEWVADISSYGDNTYYADSVKGRFTISRDNSANTLYVQMNSLRAEDTAVYYCAKRMEREVMTIKLDYHAMDVWGQGTTVTVSS VL: QSVLTQTPSVSGTPGQRVTISCSGVFNIRNYVSWYQQLPGTAPKLLIFKDDQRPSGVPDRFSGSRSGTSASLAISGLQSEDEADYYCAAWDIFLNVWVFGGGTKLTVL
2.31 | 1.81 | 2.1 | 77% | 42.4% | 40769p2.1.G4 scFv-Fc (scFv, part only; not given: Linker, domain order, Fc, V domains shown, not shown: another chain or arm of the molecule; a dimerising Fc or GST; small tags and cut ends) VH: EVQLLESGGGLVQPGGSLRLSCAASGFTFTSHDMNWVRQAPGKGLEWVSTITTGGNTYYADSVKGRFTISRDNSKNTLYLQMTSLRAEDTAVYYCTKHYSMDVWGQGTTVTVSS VL: QSVLTQPPSASGTPGQRVTISCSGSTSNVVFNAVYWYQQLPGTAPKLLFYGKSQRPSGVPDRFSGSKSGTSASLAISGLQSEDEADYYCAAWDDTLNGWVFGGGTKLTVL
2.29 | 2.01 | 1.37 | 77.1% | 22.9% | 40769p2.1.H12 scFv-Fc (scFv, part only; not given: Linker, domain order, Fc, V domains shown, not shown: another chain or arm of the molecule; a dimerising Fc or GST; small tags and cut ends) VH: EVQLLESGGGLIQPGGSLRLSCTASGFDFSSYGMHWVRQAPGKGLEWVGIISDSGGTTYYADSVKGRFTISRDNSKNTLYLQMNSLRAEDTALYYCASYIMDVWGQGITVTVSS VL: QSVLTQPPSASGTPGQRVTISCSGSNSNVGVNSVYWYQQLPGTAPKLLIYGSGRRPSGVPDRFSVSKSGTSASLAISGLQSEDEADYYCAAWDDGLNAWVFGGGTKLTVL
– | – | 0.044 | – | – | 40769p2.2.D3 scFv-Fc (scFv, V domains shown) VH: EVQLLESGGGLIQPGGSLRLSCTASGFDFSSYGMHWVRQAPGKGLEWVGIISDSGGTTYYADSVKGRFTISRDNSKNTLYLQMNSLRAEDTALYYCASYIMDVWGQGITVTVSS VL: QSVLTQPPSASGTPGQRVTISCSGSNSNVGVNSVYWYQQLPGTAPKLLIYGSGRRPSGVPDRFSVSKSGTSASLAISGLQSEDEADYYCAAWDGGLNAWVFGGGTKLTVL
1.46 | 1.7 | 0.044 | 92.1% | 1.46% | 40769p2.2.G3 scFv-Fc (scFv, part only; not given: Linker, domain order, Fc, V domains shown, not shown: another chain or arm of the molecule; a dimerising Fc or GST; small tags and cut ends) VH: EVQLLESGGGLVQPGGSLRLSCTASGITFSRFNMFWVRQAPGKGLEFVASIRDDGSWTYYADSVKGQFTISRDNSKNTLYLQMNSLRAEDTAVYYCAKDYSSKDFIYHYVMDVWGQGTTVTVSS VL: QSVLTQPPSASGTPGQRVTISCSGRNSNIGNNVVNWYQQLPGTAPKLLIYRNQERPSGVPDRFSGSKSGTSASLAISGLQSEDEADYYCASWDDSLNAWVFGRGTKLTVL
1.47 | 1.67 | 0.045 | 92.5% | 1.43% | 40769p2.2.H4 scFv-Fc (scFv, part only; not given: Linker, domain order, Fc, V domains shown, not shown: another chain or arm of the molecule; a dimerising Fc or GST; small tags and cut ends) VH: EVQLLESGGGLVQPGGSLRLSCAASGFDFSSYWMNWVRQAPGKGLEWVSTISSGGSIIYYADSVKGQFTISRDNSKNTLYLQMNSLRAEDTAVYYCAKDNWNDYYGMDVWGQGTTVTVSS VL: QSVPTQPPSASGTPGQRVTISCSGSSSNIRDNYVYWYQQVPGTAPKLLIYKDDQRPSGVPDRFSGSKSGTSASLAISGLQSEDEADYYCATWDGSLNARVFGGGTKLTVL
